Experimental data published in patent US6414113B1, “Peptides binding to bone marrow stromal cell antigen” (Biomolecular Engineering Research Institute, priority 1998, dated 2002).
Where no end group is shown, it is not given here. The star is where a group is joined. Biotin = O=C1N[C@H]2[C@H](CS[C@H]2CCCCC(=O)*)N1

T1: BST-1 (Homo sapiens, UniProt Q10588)
T1 construct: made in house; host or cells: baculovirus (pVL1393); virus made in Sf9, protein expressed in High five insect cells
T1 sequence (Q10588 33-297): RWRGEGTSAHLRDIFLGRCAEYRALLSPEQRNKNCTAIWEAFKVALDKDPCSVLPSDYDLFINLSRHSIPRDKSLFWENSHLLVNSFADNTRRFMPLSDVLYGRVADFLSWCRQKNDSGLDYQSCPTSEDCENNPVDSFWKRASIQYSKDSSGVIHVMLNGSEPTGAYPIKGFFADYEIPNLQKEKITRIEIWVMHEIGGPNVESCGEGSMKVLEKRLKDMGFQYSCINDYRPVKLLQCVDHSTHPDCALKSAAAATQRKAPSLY

T2: soluble human bone marrow stromal cell antigen-1 (BST-1) (human, UniProt Q10588 33-297)
T2 construct: range 1-297; Expressed with baculovirus in High five insect cells, purified to 95% or more; The construct encodes codons 1-297; also called purified BST-1; soluble BST-1
T2 sequence (looked up): T1 sequence (Q10588 33-297)

B1: synthetic peptide SNP-1 (peptide)
peptide: HSQISGKYQRYLKDA
notes: 15-residue synthetic peptide, purity 95% or more; also called prototype SNP-1; original SNP-1
B2: phage SN-1 (phage expressing the peptide defined by SEQ ID NO: 1) (peptide)
peptide: HSQISGKYQRYLKDA
notes: not shown: phage coat protein of the Fuse 5 vector to which the peptide is fused; not specified
B3: phage SN-16 (phage expressing the peptide defined by SEQ ID NO: 2) (peptide)
peptide: DDVVYTNIHKWGRRE
notes: as for B2

What was measured:
BST-1 = target: T1, BST-1; assay: Inhibition of ADP-ribosyl cyclase activity of BST-1 (NGD method); type: biochemical; settings: DTT 10 mM
Description: The fact that the peptide thus obtained inhibits ADP-ribosyl cyclase activity of BST-1 may be identified by comparing the ADP-ribosyl cyclase activity when measured in the absence of the peptide with the activity in the presence of the peptide. As previously mentioned, NAD is converted to cADP-ribose by ADP-ribosyl cyclase activity of BST-1, and therefore, the activity may be measured by allowing to react NAD with BST-1 and then quantitatively determining NAD and cADP-ribose after separation of them by anion-exchange chromatography (FEBS letters, 356, 244, 1994). Alternatively, nicotinamide guanine dinucleotide (NGD) may be used as a substrate instead of NAD, which is converted to cyclic guanosine-5′-diphosphate-ribose cGDP-ribose that can be fluorimetrically measured with an excitation wavelength of 300 nm and an emission wavelength of 410 nm, whereby the velocity of the formation of cGDP-ribose reflects ADP-ribosyl cyclase activity (J. Biol. Chem., […], 30260, 1994).
The abscissa is time course and the ordinate is fluorescence intensity. Purified BST-1 (4 μg/ml) was mixed with NGD (300 μM), and the mixture was allowed to react at 25° C. for 300 seconds, and then the synthetic peptide SNP-1 was added thereto at the concentration of 20 μM.
Inhibition of ADP-ribosyl cyclase activity of BST-1 by synthetic peptides was tested by means of the NGD method previously mentioned. […]

[1] = target: T2, soluble human bone marrow stromal cell …; assay: Biacore SPR, BST-1 amine-coupled on CM5, equilibrium values at 400-2000 nM peptide, Scatchard plot
Experimental: BST-1 was immobilized at 2800 resonance unit (RU) on the sensor chip CM5 of a bio-sensor for analyzing protein interactions, BIACORE (Biacore K.K.), by means of an amine coupling method. The synthetic peptides were passed through the sensor chip at the flow rate of 40 µl/min at the concentration of from 400 nM to 2000 nM. Equilibrium binding value was obtained for each concentration. Based on the equilibrium binding values, dissociation constants were calculated by means of Scatchard plot method (Hulme E. C.; Receptor-binding studies, a brief outline, in Receptor Biochemistry: A Practical Approach, 303–315, IRL press, 1990).

bovine serum albumin = target: T3, bovine serum albumin (bovine, UniProt P02769 25-607); assay: phage ELISA, well coated with BSA alone
T3 construct: also called BSA
T3 sequence (P02769 25-607 limits assumed): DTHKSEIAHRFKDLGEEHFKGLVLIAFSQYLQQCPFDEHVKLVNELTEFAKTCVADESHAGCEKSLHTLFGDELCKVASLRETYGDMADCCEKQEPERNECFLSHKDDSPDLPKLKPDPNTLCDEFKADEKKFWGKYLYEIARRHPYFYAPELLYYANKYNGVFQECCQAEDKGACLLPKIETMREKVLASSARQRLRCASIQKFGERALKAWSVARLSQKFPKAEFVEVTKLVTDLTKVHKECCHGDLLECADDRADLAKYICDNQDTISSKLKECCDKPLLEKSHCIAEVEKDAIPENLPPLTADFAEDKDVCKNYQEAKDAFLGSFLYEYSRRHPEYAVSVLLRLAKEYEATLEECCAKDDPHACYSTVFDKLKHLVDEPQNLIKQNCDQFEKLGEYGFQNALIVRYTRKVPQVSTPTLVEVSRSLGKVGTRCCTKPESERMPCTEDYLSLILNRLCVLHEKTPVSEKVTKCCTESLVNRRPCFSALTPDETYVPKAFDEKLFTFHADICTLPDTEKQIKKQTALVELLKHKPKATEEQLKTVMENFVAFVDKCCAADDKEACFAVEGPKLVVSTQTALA

Molecule	Kd [1] [nM]	binding result (bovine serum albumin)	also measured
O[C@@H](CS)[C@@H](O)CS [DTT]	–	–	ADP-ribosyl cyclase activity of BST-1 after addition of reducing agent (BST-1): complete disappearance
B1	510	–	–
{Sulfo‑NHS‑LC‑Biotin}-HSQISGKYQRYLKDA [bSNP-1 (SNP-1 biotinylated at the N-terminal)]	530	–	–
HSQISGKYQRYLKDAK(Biotin) [SNPb-1 (SNP-1 with an additional C-terminal Lys carrying biotin)]	810	–	–
B2	–	no binding	–
B3	–	no binding	–
